Measured values: PMC6855506

Experiments:
AphA (Vibrio cholerae) = molecular target: T1, AphA (Vibrio cholerae) (UniProt Q9X399); assay: EMSA; details: 40 mM Tris acetate pH 7.9, 50 mM KCl, 5 mM MgCl2, 500 uM DTT, 12.5 ug/ml herring sperm DNA; EMSA 15 min at 37 C
T1 sequence: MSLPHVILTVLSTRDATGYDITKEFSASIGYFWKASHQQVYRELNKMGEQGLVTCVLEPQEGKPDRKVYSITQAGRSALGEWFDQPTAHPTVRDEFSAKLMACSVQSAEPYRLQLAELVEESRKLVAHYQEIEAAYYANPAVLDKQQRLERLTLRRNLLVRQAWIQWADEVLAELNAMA

CRP (Vibrio cholerae) = molecular target: T2, CRP (Vibrio cholerae) (UniProt O34015); assay: EMSA; details: 40 mM Tris acetate pH 7.9, 50 mM KCl, 5 mM MgCl2, 500 uM DTT, 12.5 ug/ml herring sperm DNA; EMSA 15 min at 37 C
T2 sequence: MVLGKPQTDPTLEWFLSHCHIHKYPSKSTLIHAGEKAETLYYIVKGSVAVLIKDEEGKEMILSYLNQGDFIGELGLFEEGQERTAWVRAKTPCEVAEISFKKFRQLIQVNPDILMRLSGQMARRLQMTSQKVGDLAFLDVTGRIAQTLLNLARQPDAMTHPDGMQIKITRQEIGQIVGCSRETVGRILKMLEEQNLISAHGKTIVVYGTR

Sequence	binding (AphA (Vibrio cholerae))	binding (CRP (Vibrio cholerae))
AATTCCATTTCCCAAAATCCTTTGCAAACCGTGAGAGGATGATGAATCAACTTGCATAGATGCTAACAGCTATCAAAAATGGCGTTGTTTTATAAAGAGAAGTAATGGAAATGA / AGCTTCATTTCCATTACTTCTCTTTATAAAACAACGCCATTTTTGATAGCTGTTAGCATCTATGCAAGTTGATTCATCATCCTCTCACGGTTTGCAAAGGATTTTGGGAAATGG [VC0857-VC0858 intergenic region]	binds	
AATTCTAGAGGAGCAACAAAAAATTGACGCTGTGATACTGGTCTCATAATCTGGCGCAAAAGTATTGCATCGATGTGAGATAAGTCCAGACTTATTTCTCTTCGTAAACTATCATTAGCTTCATAAAACAAGCA / AGCTTGCTTGTTTTATGAAGCTAATGATAGTTTACGAAGAGAAATAAGTCTGGACTTATCTCACATCGATGCAATACTTTTGCGCCAGATTATGAGACCAGTATCACAGCGTCAATTTTTTGTTGCTCCTCTAG [tfoX promoter wild type]	binds	binds
